From paper PMC11790652

Key:
[1] = target: P66 G175V (site-directed mutant, B. burgdorferi B31 A3) (Borrelia burgdorferi (strain B31 A3))
[2] = target: P66 G175V (site-directed mutant, B. burgdorferi B31 A3) (Borrelia burgdorferi (strain B31 A3)); assay: native gel or EMSA; BN-PAGE of outer membrane proteins (B-fractions) of the B. burgdorferi strains, immunoblot probed with rabbit polyclonal antibody D8713 against P66
[3] = target: P66 G584R (site-directed mutant, B. burgdorferi B31 A3) (Borrelia burgdorferi (strain B31 A3))
[4] = target: P66 G584R (site-directed mutant, B. burgdorferi B31 A3) (Borrelia burgdorferi (strain B31 A3)); assay: native gel or EMSA; BN-PAGE of outer membrane proteins (B-fractions) of the B. burgdorferi strains, immunoblot probed with rabbit polyclonal antibody D8713 against P66
[5] = target: P66 T176M (site-directed mutant, B. burgdorferi B31 A3) (Borrelia burgdorferi (strain B31 A3))
[6] = target: P66 T176M (site-directed mutant, B. burgdorferi B31 A3) (Borrelia burgdorferi (strain B31 A3)); assay: native gel or EMSA; BN-PAGE of outer membrane proteins (B-fractions) of the B. burgdorferi strains, immunoblot probed with rabbit polyclonal antibody D8713 against P66

“P66 G175V (site-directed mutant, B. burgdorferi B31 A3) (natural protein)” was tested, and the black lipid bilayer (BLB) channel conductance of B-fractions in 1 M KCl, 20 mV [1] was < 5 nS and the stoichiometry N [2] was 3.
For “P66 G584R (site-directed mutant, B. burgdorferi B31 A3) (natural protein)”, the black lipid bilayer (BLB) channel conductance of B-fractions in 1 M KCl, 20 mV [3] was < 5 nS and the stoichiometry N [4] was 3.
“P66 T176M (site-directed mutant, B. burgdorferi B31 A3) (natural protein)” was tested, and the black lipid bilayer (BLB) channel conductance of B-fractions in 1 M KCl, 20 mV [5] was < 5 nS and the stoichiometry N [6] was 3.
